Experimental findings from paper PMC6058493 are described below.

Data set [1] concerns the target prostate-specific membrane antigen (PSMA) (UniProt Q04609). As to the kind of experiment: competition (flow cytometry, confocal microscopy). The settings on record: 2'-fluoro pyrimidines; 3'-spacer-NH2 as purchased; cells incubated 30 min at room temperature, washed 3x with PBS; buffer, salt and pH of incubation not stated; scale: % cells bound by aptamer nanobubbles with excess free aptamer. For orientation: A flow cytometer gives signals particle by particle.
UniProt Q04609, sequence (Q04609 whole entry): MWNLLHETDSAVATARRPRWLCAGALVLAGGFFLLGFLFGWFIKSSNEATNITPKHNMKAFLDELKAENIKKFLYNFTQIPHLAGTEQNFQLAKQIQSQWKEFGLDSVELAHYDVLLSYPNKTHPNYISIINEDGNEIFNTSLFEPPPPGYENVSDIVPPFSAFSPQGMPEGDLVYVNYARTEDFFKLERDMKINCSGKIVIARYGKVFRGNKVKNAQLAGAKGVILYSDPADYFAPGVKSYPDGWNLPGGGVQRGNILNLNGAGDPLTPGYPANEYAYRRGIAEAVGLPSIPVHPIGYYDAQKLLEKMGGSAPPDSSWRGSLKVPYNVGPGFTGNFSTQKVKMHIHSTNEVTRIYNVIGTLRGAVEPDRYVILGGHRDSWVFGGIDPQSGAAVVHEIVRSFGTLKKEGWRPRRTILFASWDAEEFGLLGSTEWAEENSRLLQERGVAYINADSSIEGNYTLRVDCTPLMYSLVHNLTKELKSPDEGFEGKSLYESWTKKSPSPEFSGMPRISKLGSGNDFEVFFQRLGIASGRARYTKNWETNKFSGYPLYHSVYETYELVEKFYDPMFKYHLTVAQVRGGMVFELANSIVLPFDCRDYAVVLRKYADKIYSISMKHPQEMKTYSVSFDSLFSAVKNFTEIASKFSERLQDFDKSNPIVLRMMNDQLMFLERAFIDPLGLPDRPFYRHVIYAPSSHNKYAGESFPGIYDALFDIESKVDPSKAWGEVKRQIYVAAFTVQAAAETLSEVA

Data set [2] has the same target. As to the kind of experiment: flow cytometry and confocal microscopy on LNCaP cells. The settings on record: 2'-fluoro pyrimidines; 3'-spacer-NH2; cells incubated 30 min at room temperature, washed 3x with PBS; buffer, salt and pH of incubation not stated.

With “GGGAGGACGAUGCGGAUCAGCCAUGUUUACGUCACUCCU [A10-3.2 aptamer (free competitor)]”, the binding signal in data set [1] turned out to be 4.07.

On to “GGGAGGACGAUGCGGAUCAGCCAUGUUUACGUCACUCCU [A10-3.2 aptamer on siFoxM1-Apt-CNBs]”, for which the binding signal (% cells bound) in data set [2] came out at 82.4.
